According to patent US8450280B2, “Activation of peptide prodrugs by hK2” (GenbSpera, Inc., priority 1999, dated 2013):
Starred links: 1 amine or outer side, 2 acyl side, 3 side chain; linkers in the order of their positions; H or OH if unused. Non-standard residues stand in square brackets, D forms with d. Residues, ends and D or L forms follow the SMILES beside them. No end group written: not given here. CO = O=C([*:1])[*:2]

Columns and labels:
[1] = molecular target: T1, hK2 (Homo sapiens, UniProt P20151); experiment: Inhibition of hK2 by protease inhibitors (substrate H-Pro-Phe-Arg-AMC); type: biochemical; conditions: for inhibition at 100 µM: inhibitor 100 μM (highest recommended working concentration), 90 μM peptide substrate; for remaining activity at 100 µM: inhibitor 100 μM
T1 construct: made in house
Method: Activity of hK2 (1.6 pmol) was monitored using the substrate H-Pro-Phe-Arg-AMC (SEQ ID NO: 55) (90 μM). Inhibitors, at commonly used concentrations, and hK2 (8.3 nM) were mixed and proteolysis of 90 μM H-Pro-Phe-Arg-AMC (SEQ ID NO: 55) was followed up to 20 minutes, starting directly or 10 minutes after mixing the enzyme with various inhibitors. Inhibition was evaluated by comparison with […] controls.
The proteolytic activity is expressed in percentage of inhibitor-free control after 10 minutes of incubation.
Therefore, PPACK can be used to obtain fast irreversible inhibition of hK2.

[2] = Serum hydrolysis of hK2 substrates; type: in vitro ADME; conditions: Table 5; 50% fresh human serum in 50 mM Tris, 0.1 M NaCl, pH 7.8
Method: (§1) Hydrolyses of particular hK2 substrates were carried out at a hK2 concentrations of 1 μg/ml in 50 mM Tris buffer, with 0.1 M NaCl, at pH 7.8. Serum hydrolysis measurements were carried out in 50% fresh human serum in 50 mM Tris buffer, with 0.1 M NaCl, at pH 7.8. The single letter amino acid code was used to designate the peptide sequences used for Table 4. The units FU are arbitrary fluorescence units. The entries “U.D.” were for measurements of less than 0.01 FU/hour.

[3] = molecular target: T1, hK2; experiment: Hydrolysis of hK2 substrates by hK2; type: biochemical; conditions: Table 5; hK2 1 μg/ml, 50 mM Tris, 0.1 M NaCl, pH 7.8
Method: as §1

[4] = 10 minutes of incubation, 8.3 nM hK2, 90 μM substrate, read-out: Activity (%) of hK2, percentage of inhibitor-free control
[5] = inhibitor 5 μM, 10 minutes of incubation, 8.3 nM hK2, 90 μM substrate

T1 sequence (P20151 25-261): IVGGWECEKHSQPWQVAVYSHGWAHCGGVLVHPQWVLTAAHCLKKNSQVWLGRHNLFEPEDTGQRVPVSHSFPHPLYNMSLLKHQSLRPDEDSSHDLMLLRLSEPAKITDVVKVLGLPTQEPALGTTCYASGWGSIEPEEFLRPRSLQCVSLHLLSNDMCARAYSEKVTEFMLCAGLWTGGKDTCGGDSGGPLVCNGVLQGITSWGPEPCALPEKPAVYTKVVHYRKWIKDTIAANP

| Molecule | Serum Hydrolysis Rate [2] | hK2 Hydrolysis Rate [3] | further results |
| --- | --- | --- | --- |
| CC(C)[C@H](NC(=O)[C@H](CCCNC(=N)N)NC(=O)N[C@@H](Cc1ccccc1)C(=O)O)C(=O)N[C@H](C=O)CCCNC(=N)N [Antipain, antipain] ({Phe-CO}-Arg-Val-Arg-aldehyde) | – | – | inhibition at 100 µM [1]: ~90%; remaining activity at 100 µM [1, 4]: 33%; remaining activity at 500 µM ([1]; inhibitor 500 μM, 10 minutes of incubation, 8.3 nM hK2, 90 μM substrate, read-out: Activity (%) of hK2, percentage of inhibitor-free control): 10% |
| Cl.N=C(N)c1ccccc1 [Benzamidine, Benzamidine hydrochloride] | – | – | concentration required for efficient inhibition of hK2 [1]: above 20 mM; remaining activity at 5000 µM ([1]; inhibitor 5000 μM, 10 minutes of incubation, 8.3 nM hK2, 90 μM substrate, read-out: Activity (%) of hK2, percentage of inhibitor-free control): 27%; remaining activity at 20000 µM ([1]; inhibitor 20,000 μM, 10 minutes of incubation, 8.3 nM hK2, 90 μM substrate, read-out: Activity (%) of hK2, percentage of inhibitor-free control): 8% |
| CC(=O)N[C@@H](CC(C)C)C(=O)N[C@@H](CC(C)C)C(=O)N[C@H](C=O)CCCNC(=N)N [Leupeptin, leupeptin] | – | – | inhibition of hK2 (in words) ([1]; 8 nM hK2, 90 μM substrate): only weakly inhibited; inhibition at 100 µM [1]: ~60%; remaining activity at 100 µM [1, 4]: 12% |
| NC(N)=NCCC[C@H](NC(=O)[C@@H]1CCCN1C(=O)[C@H](N)Cc1ccccc1)C(=O)CCl [PPACK] | – | – | inhibition of hK2 (in words) ([1]; 5 μM concentration, irreversible): inhibited hK2 rapidly; Activity (%) of hK2, percentage of inhibitor-free control [1, 5]: 0% |
| Aprotinin | – | – | inhibition of hK2 (in words) ([1]; 8 nM hK2, 90 μM substrate): not to be good hK2 inhibitor; Activity (%) of hK2, percentage of inhibitor-free control [1, 5]: 10%; Activity (%) of hK2, percentage of inhibitor-free control ([1]; inhibitor 30 μM, 10 minutes of incubation, 8.3 nM hK2, 90 μM substrate): 33% |
| SEQ ID NO: 95: hK2 substrate peptide, single letter sequence P7-P′1 (GHEAKRRL; listed as Homo sapiens) | UD (The entries “U.D.” were for measurements of less than 0.01 FU/hour) | 3324.1 FU/hr/m | – |
| SEQ ID NO: 96: hK2 substrate peptide, single letter sequence P6-P′1 (GGQKRRL; listed as Homo sapiens) | 0.02 FU/hr | 3267.4 FU/hr/m | – |
| SEQ ID NO: 97: hK2 substrate peptide, single letter sequence P7-P′1 (GHEQKRRA; listed as Homo sapiens) | 0.06 FU/hr | 3051.5 FU/hr/m | – |
| SEQ ID NO: 98: hK2 substrate peptide, single letter sequence P6-P′1 (GGAKRRL; listed as Homo sapiens) | 0.02 FU/hr | 2773.0 FU/hr/m | – |
| SEQ ID NO: 99: hK2 substrate peptide, single letter sequence P7-P′1 (GHEQKRRS; listed as Homo sapiens) | UD (The entries “U.D.” were for measurements of less than 0.01 FU/hour) | 2638.5 FU/hr/m | – |
| SEQ ID NO: 100: hK2 substrate peptide, single letter sequence P6-P′1 (GGKKRRL; listed as Homo sapiens) | UD (The entries “U.D.” were for measurements of less than 0.01 FU/hour) | 2583.0 FU/hr/m | – |
| SEQ ID NO: 101: hK2 substrate peptide, single letter sequence P6-P′1 (GGHKRRL; listed as Homo sapiens) | UD (The entries “U.D.” were for measurements of less than 0.01 FU/hour) | 2428.4 FU/hr/m | – |
| SEQ ID NO: 102: hK2 substrate peptide, single letter sequence P6-P′1 (GGKAFRL; listed as Homo sapiens) | 0.07 FU/hr | 2374.2 FU/hr/m | – |
| SEQ ID NO: 103: hK2 substrate peptide, single letter sequence P7-P′1 (GAEQKRRL; listed as Homo sapiens) | 0.10 FU/hr | 2325.8 FU/hr/m | – |
| SEQ ID NO: 104: hK2 substrate peptide, single letter sequence P6-P′1 (GGKAQRL; listed as Homo sapiens) | 0.04 FU/hr | 2233.7 FU/hr/m | – |
| SEQ ID NO: 105: hK2 substrate peptide, single letter sequence P6-P′1 (GGKARRL; listed as Homo sapiens) | UD (The entries “U.D.” were for measurements of less than 0.01 FU/hour) | 2171.2 FU/hr/m | – |
| SEQ ID NO: 106: hK2 substrate peptide, single letter sequence P6-P′1 (GGKQRRL; listed as Homo sapiens) | 0.02 FU/hr | 2171.2 FU/hr/m | – |

| Molecule | Serum Hydrolysis Rate [2] | hK2 Hydrolysis Rate [3] | further results |
| --- | --- | --- | --- |
| SEQ ID NO: 107: hK2 substrate peptide, single letter sequence P6-P′1 (GGKHRRL; listed as Homo sapiens) | UD (The entries “U.D.” were for measurements of less than 0.01 FU/hour) | 2079.2 FU/hr/m | – |
| SEQ ID NO: 108: hK2 substrate peptide, single letter sequence P7-P′1 (GHEQARRL; listed as Homo sapiens) | 0.14 FU/hr | 1956.4 FU/hr/m | – |
| SEQ ID NO: 109: hK2 substrate peptide, single letter sequence P6-P′1 (GGKAKRL; listed as Homo sapiens) | 0.14 FU/hr | 1788.9 FU/hr/m | – |
| SEQ ID NO: 110: hK2 substrate peptide, single letter sequence P7-P′1, dL at P′1 (GHEQKRR[dL]; listed as Homo sapiens) | 0.15 FU/hr | 1690.9 FU/hr/m | – |
| SEQ ID NO: 111: hK2 substrate peptide, single letter sequence P6-P′1 (GGKARRS; listed as Homo sapiens) | UD (The entries “U.D.” were for measurements of less than 0.01 FU/hour) | 1609.6 FU/hr/m | – |
| SEQ ID NO: 112: hK2 substrate peptide, single letter sequence P6-P′1 (GGKARKL; listed as Homo sapiens) | UD (The entries “U.D.” were for measurements of less than 0.01 FU/hour) | 1602.4 FU/hr/m | – |
| SEQ ID NO: 113: hK2 substrate peptide, single letter sequence P7-P′1 (GHEQKRRE; listed as Homo sapiens) | UD (The entries “U.D.” were for measurements of less than 0.01 FU/hour) | 1473.8 FU/hr/m | – |
| SEQ ID NO: 114: hK2 substrate peptide, single letter sequence P6-P′1 (GGKAHRL; listed as Homo sapiens) | 0.10 FU/hr | 1287.4 FU/hr/m | – |
| SEQ ID NO: 115: hK2 substrate peptide, single letter sequence P6-P′1 (GGKANRL; listed as Homo sapiens) | 0.01 FU/hr | 1113.9 FU/hr/m | – |
| SEQ ID NO: 116: hK2 substrate peptide, single letter sequence P6-P′1 (GGKARQL; listed as Homo sapiens) | 0.13 FU/hr | 1021.9 FU/hr/m | – |
| SEQ ID NO: 117: hK2 substrate peptide, single letter sequence P6-P′1 (GGKARHL; listed as Homo sapiens) | UD (The entries “U.D.” were for measurements of less than 0.01 FU/hour) | 939.3 FU/hr/m | – |
| SEQ ID NO: 118: hK2 substrate peptide, single letter sequence P6-P′1 (GGKARNL; listed as Homo sapiens) | 0.25 FU/hr | 828.4 FU/hr/m | – |
| SEQ ID NO: 119: hK2 substrate peptide, single letter sequence P6-P′1, dR at P2 (GGKA[dR]RL; listed as Homo sapiens) | 0.06 FU/hr | 494.4 FU/hr/m | – |
| SEQ ID NO: 120: hK2 substrate peptide, single letter sequence P6-P′1 (GGKAKKL; listed as Homo sapiens) | UD (The entries “U.D.” were for measurements of less than 0.01 FU/hour) | 77.9 FU/hr/m | – |
| SEQ ID NO: 121: hK2 substrate peptide, single letter sequence P6-P′1 (GGKAHKL; listed as Homo sapiens) | UD (The entries “U.D.” were for measurements of less than 0.01 FU/hour) | 73.2 FU/hr/m | – |
| SEQ ID NO: 123: hK2 substrate peptide, single letter sequence P6-P′1, dR at P2 and P1 (GGKA[dR][dR]L; listed as Homo sapiens) | UD (The entries “U.D.” were for measurements of less than 0.01 FU/hour) | 16.5 FU/hr/m | – |
